Test results taken from US6383479B1, “Neutrophil-activating factor” (Novartis AG, priority 1987, dated 2002).

Legend:
[1] = test system: New Zealand albino rabbits; assay: neutrophil accumulation and plasma leakage in rabbit skin after intradermal injection; type: in vivo
Source text: Inflammatory responses are examined in the skin of conscious 2.0 to 2.5 kg New Zealand albino rabbits. Erythrocytes in blood from donor rabbits are sedimented with hydroxyethyl cellulose (Polysciences, Warrington, Pa.) and neutrophils in the resultant leucocyte-rich plasma are purified (>94% neutrophils) by density gradient centrifugation on Percoll (Pharmacia, Uppsala, Sweden). Cells are resuspended in Ca^2+ and Mg^2+—free Tyrode's solution containing 10% platelet poor plasma to a concentration of 10^6 leukocytes/ml and labeled for 15 min at room temperature with 40 μCi ^111indium-oxine (Amersham) per 10^6 cells. The labeled cells are washed by centrifugation through 10% platelet-poor plasma and approximately 10^6 cells per recipient are mixed with 10 μCi ^125iodine-labeled human serum albumin (Amersham) and injected intravenously through the lateral ear vein of rabbits with inflammatory lesions under study. Intradermal injections of inflammatory agents are then made and animals are killed 2 h later in studies with actinomycin D and polymyxin B, and 4 h later in dose-response experiments. Midway through the period that radiolabeled cells are in circulation, a blood sample is collected and the specific activities of neutrophils and plasma in blood are determined. Radioactivity in inflammatory lesions at the end of each experiment are determined in a multichannel gamma counter, the activity in control skin sites is subtracted and the absolute number of neutrophils and volume of plasma accumulating in inflammatory lesions are calculated from the specific activities. Neutrophil numbers in inflammatory lesions are standardised between animals by expressing the results as cell number per 10^6 neutrophils circulating per ml peripheral blood, according to the method of Cybulsky et al., Am. J. Pathol. 124 [1986] 367.
Recombinant NAF obtained as described under Example 19 is dissolved at 400 μg/ml in minimal essential medium (50 mM) plus 0.45 M NaCl (pH 6.5). Endotoxin (E. coli serotype 055:B5, Sigma, St. Louis, Mo.) is dissolved in pyrogen-free normal saline. fMLP is dissolved in dimethyl sulphoxide at 10^−2 M and diluted to working concentrations in PFS. Polymyxin B and actinomycin D are dissolved in 1 ml ethanol and diluted 20 fold by mixing with NAF, endotoxin or fMLP in PFS. In studies on inhibition of inflammatory responses 40 μg polymyxin B and 10^−7 moles actinomycin D are injected per skin site with […] endotoxin. In all experiments 0.2 ml of inflammatory agents are injected intradermally per site through 26 gauge needles, with 5 replicates of each treatment in each animal.

[2] = exposure to fresh human serum, then activity (superoxide production); type: in vitro ADME; conditions: 15 minutes with fresh human serum
Method: C5A and NAF are incubated for 15 minutes with fresh human serum or with PBS and the activity of the preparations is determined (superoxide production).
Since C5a and NAF have similar effects on neutrophils, further experiments must be performed to discriminate entirely between the two. Samples of NAF and C5a are exposed to fresh human serum.

[3] = resistance of NAF activity to heat, pH, denaturing agents and proteases; type: physicochemical
Method: Partially purified NAF obtained upon phosphocellulose chromatography (Example 4) is used in these experiments. Following phosphocellulose chromatography, fractions with the highest NAF activity are dialysed overnight at 4° against PBS using a membrane with a molecular weight cut-off of 1000 daltons. The preparation obtained is then subjected to the following treatments: a) incubation at 37° with and without trypsin, chymotrypsin or proteinase K (100 μg/ml) followed by the addition of an excess of BSA (2 mg/ml) to stop NAF proteolysis; b) heating to 56°, 80° or 95° (as compared to 22° for control); c) exposure to pH 2 or 10 (at 22°) followed by adjustment to pH 7.4 (as compared to pH 7.4 for control); d) exposure to 2 M lithium chloride, 6 M guanidinium chloride, 1% 2-mercaptoethanol or 0.5% sodium dodecyl sulfate (SDS) for 3 h at 22°, followed by dialysis for 24 h at 4° against PBS. When additions are made, samples without NAF are handled in the same way and tested for possible influence on the NAF assay.

human neutrophils = assay: stimulus-dependent exocytosis of granule contents by human neutrophils; type: cell-based
Method: Neutrophils (5×10^6/ml) suspended in PBS/BSA are preincubated with or without cytochalasin B (5 μg/ml) at 37° for 5 min.
Granule release is then initiated by adding the stimulus, e.g. NAF or a standard stimulus. The reaction is stopped 15 min later by rapid cooling in ice followed by centrifugation to sediment the cells. Vitamin B12-binding protein, β-glucuronidase and lactate dehydrogenase are determined in the cell-free media and cell pellets, and the release of these constituents is calculated in percent of the total cellular content (B. Dewalt and M. Baggiolini, Methods Enzymol. 132 [1986] 267).
Natural and recombinant NAF are tested in parallel on human neutrophils. They elicit virtually identical changes in cytosolic free Ca^2+, yielding a maximum rise at a concentration as low as 3 nM (FIG. 15). A nearly identical concentration-dependent respiratory burst response is obtained with both preparations in the range of 1 to 30 nM as assessed by chemiluminescence. The equivalence between natural and recombinant NAF is also reflected by chemotaxis and exocytosis measurements. Chemotactic migration is observed between 0.1 and 10 nM with a maximum effect at 1 nM. (Table 6). With either peptide a significant release of vitamin B12-binding protein from the specific granules at 0.3 nM and of beta-glucuronidase from the azurophil granules at 1 nM is observed.

[4] = recombinant NAF intradermal, 10^−11 to 10^−9 moles per site, 4 h
[5] = NAF 50 μl, with CB (cytochalasin B 5 μg/ml)
[6] = NAF 100 μl, with CB (cytochalasin B 5 μg/ml)

## neutrophil-activating factor [NAF]
[1]; in vivo, rabbit skin
  molar potency relative to C5a and LTB: comparable
[1]; [4]
  neutrophil accumulation in skin sites: dose-dependent increase
  plasma leakage into skin sites: dose-dependent increase
[2]
  effect of serum treatment on activity: does not affect
[3]; 2-mercaptoethanol 1.0%, 22°, 3 h
  Relative activity: 30
[3]; SDS 0.5%, 22°, 3 h
  Relative activity: 100
[3]; Temperature 22°, 3 h (control)
  Relative activity: 100
[3]; Temperature 56°, 1 h
  Relative activity: 82
[3]; Temperature 80°, 15 min
  Relative activity: 80
[3]; Temperature 95°, 5 min
  Relative activity: 66
[3]; guanidinium chloride 6M, 22°, 3 h
  Relative activity: 68
[3]; lithium chloride 2M, 22°, 3 h
  Relative activity: 52
[3]; pH 2.0, 22°, 3 h
  Relative activity: 76
[3]; pH 10.0, 22°, 3 h
  Relative activity: 90
[3]; proteinase K 100 μg/ml, 37°, 12 h
  Relative activity: 0
[3]; trypsin 100 μg/ml, 37°, 4 h
  Relative activity: 100
[3]; trypsin 100 μg/ml, 37°, 12 h
  Relative activity: 8
[3]; α-chymotrypsin 100 μg/ml, 37°, 4 h
  Relative activity: 80
[3]; α-chymotrypsin 100 μg/ml, 37°, 12 h
  Relative activity: 1
Human neutrophils; [5]
  Percent release of Vit. B12-binding protein: 25.6 ± 3.4%
  Percent release of lactate dehydrogenase: 6.7 ± 1.6%
  Percent release of β-glucuronidase: 7.9 ± 2.0%
Human neutrophils; NAF 50 μl, without CB
  Percent release of Vit. B12-binding protein: 12.9 ± 1.6%
  Percent release of lactate dehydrogenase: 5.8 ± 0.7%
  Percent release of β-glucuronidase: 2.7 ± 1.3%
Human neutrophils; [6]
  Percent release of Vit. B12-binding protein: 26.8 ± 4.9%
  Percent release of lactate dehydrogenase: 7.3 ± 2.1%
  Percent release of β-glucuronidase: 8.5 ± 1.7%
Human neutrophils; NAF 100 μl, without CB
  Percent release of Vit. B12-binding protein: 13.9 ± 2.1%
  Percent release of lactate dehydrogenase: 6.8 ± 2.2%
  Percent release of β-glucuronidase: 3.0 ± 1.3%
